Earlier results, collected in publication PMC8291337.

Molecular target: Spike protein (SARS-CoV-2) (UniProt P0DTC2)

## CD147 (from UniProt P35613)
  Kd: 185 nM
